Experimental data as given in patent publication US20230045712A1 (AstraZeneca / MedImmune, published 2023).

Target: T1, human endothelial lipase (EL) (human, UniProt Q9Y5X9 21-500, limits assumed)
T1 construct: The assay used endogenous EL in human plasma and a bought recombinant EL standard (Origene Technologies); also called human EL
T1 sequence: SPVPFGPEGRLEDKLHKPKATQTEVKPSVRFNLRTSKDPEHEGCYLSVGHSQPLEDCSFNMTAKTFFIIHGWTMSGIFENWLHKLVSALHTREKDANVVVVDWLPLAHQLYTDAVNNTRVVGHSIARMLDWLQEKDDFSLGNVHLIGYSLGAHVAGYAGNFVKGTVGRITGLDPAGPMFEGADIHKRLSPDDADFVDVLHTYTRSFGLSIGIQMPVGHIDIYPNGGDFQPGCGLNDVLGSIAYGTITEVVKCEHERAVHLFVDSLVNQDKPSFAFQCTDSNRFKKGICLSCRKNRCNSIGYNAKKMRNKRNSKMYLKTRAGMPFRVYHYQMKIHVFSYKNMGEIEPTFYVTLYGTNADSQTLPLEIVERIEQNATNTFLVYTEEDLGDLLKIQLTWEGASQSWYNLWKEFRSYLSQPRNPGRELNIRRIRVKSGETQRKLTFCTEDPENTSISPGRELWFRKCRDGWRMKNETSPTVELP
Assay: MSD immunoassay of human plasma: plate coated with MEDI5884 captures EL, which is detected with a biotinylated EL detection antibody and streptavidin sulfo-TAG. Plasma came from subjects with stable coronary heart disease given three monthly subcutaneous doses of MEDI5884 or placebo. The loss of capturable EL after dosing is what the filing calls target engagement.
Procedure: In particular, the amount of hEL bound by MEDI5884 in human plasma was measured using the Meso Scale Diagnostics (MSD) based immunoassay platform. Briefly, wells on a 96-well plate were coated with MEDI5884 and incubated overnight at 4° C. The next day, wells were washed with PBS containing 0.05% Tween20 wash buffer and blocked with I-Block Buffer (Applied Biosystems) for one hour at room temperature. Plates were washed. Then recombinant EL protein standard (Origene Technologies) and human plasma samples were added to corresponding wells and incubated for one hour at room temperature. After washing, a biotinylated EL detection antibody (Origene Technologies) was added to corresponding wells and incubated for one hour at room temperature. Plates were washed, then a streptavidin, sulfo-TAG antibody (MSD) was added to corresponding wells and incubated for one hour at room temperature. After washing, wells were incubated with Read buffer (MSD). Plates were read using the MESO Sector S 600 plate reader, and data was analyzed using the MSD Discovery Workbench software analysis program.

B1: MEDI5884 (antibody, human IgG4 S228P, kappa, V domains shown)
VH: QVQLVQSGSELKKPGASVKVSCKASGYTFTNYALNWVRQAPGQGLEWMGWINTYSGVGTYAGEFKGRFVFSLDTSVSTAYLQISSLKAEDTAVYYCARRGFYGRRFFDVWGKGTTVTVSS
VL: DIQLTQSPSSLSASVGDRVTITCKASQSVDYDVDSYMHWYQQKPGKAPKLLIYAASNLASGVPSRFSGSGSGTDFTFTISSLQPEDIATYYCQQTIEDPPTFGGGTKVEIKR
notes: Humanized anti-EL antibody, human IgG4P heavy chain and kappa light chain; It was coated on the plate as the capture reagent in the target engagement immunoassay; also called S6F1-4P
binding result: binds
